test system: MBP-His8-MilO (Streptoverticillium rimofaciens (Streptomyces rimofaciens)); test: fluorescence polarization; conditions: EMSA: 20 mM Tris-HCl pH 8.0, 100 mM KCl, 2.5 mM MgCl2, 0.2 mM DTT, 10% glycerol, salmon sperm DNA, 30 C 10 min (Fig 5 legend: room temperature); FP: 20 mM Tris …

Binding signal (fold decrease in affinity vs OBSWT), 3:
CACTATTTAATCGTGTCGCTCGGTGGTGTCCGCCGGTGCCCCGG (double strand) [OBSM1]
TGTCGCCCGGTCGTATTATCTAACGGTGTCCGCCGGTGCCCCGG (double strand) [OBSM2]
TGTCGCCCGGTCGTGTCGCTCGGTGGCGCCTATCAACGCCCCGG (double strand) [OBSM3]
